The results in this text go back to patent publication US20210238276A1 (INTEGRAL MOLECULAR, published 2021).

Changes are numbered by the printed parent chain.

Holding throughout (assay): flow cytometry, alanine-scan library in HEK-293T, with cytochalasin B
(Flow cytometry measures light scatter and fluorescence of single cells or particles in a stream.)

The target of one assay is T1, hsGLUT4 N508A (human, UniProt P14672 1-509).
T1 sequence: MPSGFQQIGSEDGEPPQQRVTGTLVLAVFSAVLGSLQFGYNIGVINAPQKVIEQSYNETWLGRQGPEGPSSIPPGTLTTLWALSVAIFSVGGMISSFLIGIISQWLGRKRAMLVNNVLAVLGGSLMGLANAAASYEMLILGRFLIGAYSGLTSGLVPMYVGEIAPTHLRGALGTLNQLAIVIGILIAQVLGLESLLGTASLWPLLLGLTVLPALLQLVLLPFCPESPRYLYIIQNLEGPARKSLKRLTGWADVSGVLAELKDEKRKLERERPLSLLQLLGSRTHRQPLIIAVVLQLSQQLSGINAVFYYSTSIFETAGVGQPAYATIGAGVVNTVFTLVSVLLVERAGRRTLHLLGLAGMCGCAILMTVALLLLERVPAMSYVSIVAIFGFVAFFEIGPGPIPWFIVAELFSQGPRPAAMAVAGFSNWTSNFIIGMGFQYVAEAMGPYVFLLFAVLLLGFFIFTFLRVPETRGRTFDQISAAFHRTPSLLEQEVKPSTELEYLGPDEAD
An outline of the steps: (§1)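 HEK-293T cells expressing individual GLUT4 alanine mutants were stained 48 h post-transfection with anti-GLUT4 scFv MAbs (2 μg/ml), then biotinylated secondary and streptavidin-PerCP, and read by high-throughput flow cytometry. Where used, cytochalasin B (10 uM final) was given for 30 min before and during primary antibody staining.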

For the next assay, the target named is T2, hsGLUT4 F314A (human, UniProt P14672 1-509).
T2 sequence: T1 sequence with F314A, A508N
The essentials: as §1

Another assay addresses T3, hsGLUT4 E345A (human, UniProt P14672 1-509).
T3 sequence: T1 sequence with E345A, A508N
An outline of the steps:
as §1

In a further assay the target is T4, hsGLUT4 L155A (human, UniProt P14672 1-509).
T4 sequence: T1 sequence with L155A, A508N
An outline of the steps: as §1

B1: AB102 (Fc fusion)
scFv: ALTQPSSVSANLGGTVKITCSGGGSYGYGWYQQKSPGSAPVTVIYSNDQRPSDIPSRFSGSKSGSTATLTITGVRAEDEAIYYCGSTDSDYVGIFGAGTTLTVLGQSSRSSGGGGSSGGGGSAVTLDESGGGLQTPGGTLSLVCKASGFDFSSYATIWVRQAPGKGLEWVAGISGTGTGSSTGYAPAVKGRATISRDNGQSTVRLQLNNLRAEDTGSYFCAKSTGYGDSWIYPDSIDAWGHGTEVIVSS
notes: also called MAb AB102; not shown: Fc fragment of human IgG1, cloned in frame with the scFv
Turning to B1, the “% of binding to wild type GLUT4” value with hsGLUT4 N508A came to 70%; in the assay with hsGLUT4 F314A, 23%; in the assay with hsGLUT4 E345A, 80%; in the assay with hsGLUT4 L155A it was 26%.
